# According to patent US20250195917A1, “SEQUENTIAL TRANSARTERIAL CHEMOEMBOLIZATION, STEREOTACTIC BODY RADIOTHERAPY, AND IMMUNOTHERAPY (START-FIT) FOR HEPATOCELLULAR CARCINOMA” (The University of Hong Kong, priority 2023, published 2025):
# Like-named read-outs stand apart in the source and are kept apart here.
# Assay type: in vivo
# Details: for Dermatitis / Hepatitis / Others immune-related: Immune-related; for Amylase increased / Anemia / Hypercreatinine / Hyperglycemia / Hypokalemia / Hyponatremia / Hypothyroidism / Leukopenia / Lipase increased / Neutropenia / Thrombocytopenia: Laboratory; for Dry skin / Others (Skin) / Pruritus / Rash, acneiform / Rash, maculopapular / Rash, urticarial: Skin
# Experimental: All patients underwent a single treatment of conventional TACE within 28 days of study enrolment. Conventional TACE was performed by supra-selective cannulation of all the branches supplying the tumor. The emulsion was prepared by mixing iodised oil with cisplatin (1 mg/mL) in a 1:1 ratio. A maximum of 60 mL of emulsion was injected. Preparation of the emulsion was followed by embolisation with gelfoam (gelatin granules) pellets of 1 mm diameter mixed with 40 mg of gentamicin. At 28 days (plus or minus 3 days) after the completion of TACE, stereotactic body radiotherapy was delivered to all lesions. Patients were immobilised via a vacuum foam bag (Vac-Lok™; MEDTEC, IA, USA) and active breathing control to reduce liver motion. Imaging was performed on the inhale breath-hold contrast CT. Gross tumor volume was defined as a tumor focus that was visualised by contrast imaging. The clinical target volume was defined as gross tumor volume with expansion to include the area stained with iodised oil. The individualised planning target volume margins were formulated to compensate for respiratory motion and setup errors. Cone beam CT was acquired on board before each treatment. A radiation dose of 27.5-40.0 Gy in five fractions delivered daily was allowed per protocol. The prescription isodose encompassed 95% of the planning target volume. The final dose was determined such that a maximum tumoricidal dose could be delivered to tumors while respecting the tolerance dose of the organ at risk (Table 3). The radiotherapy toxicity was assessed by CTCAE; version 4.01.
# All patients underwent baseline contrast-enhanced MRI of the liver and CT of the thorax. Treatment response evaluation was assessed with MRI after cycle 4, cycle 8, and cycle 12 of avelumab and every 12 weeks thereafter (plus or minus 7 days). Radiological imaging was reported using the modified Response Evaluation Criteria in Solid Tumors (mRECIST). A CT of the thorax was done every 26 weeks or at the time of radiological or clinical evidence of disease progression according to mRECIST criteria. All patients were discussed in a multidisciplinary team board meeting of surgeons specializing in liver transplantation and liver surgery, clinical oncologists, interventional radiologists, and diagnostic radiologists. This meeting was held once every 2 weeks to decide resectability and treatment failure. All patients underwent complete tumor staging to exclude distant metastasis before surgery. A board-certified radiologist conducted an independent blinded review in addition to the investigator review. Safety assessments were documented throughout the treatment period. Adverse events were graded according to the US National Cancer Institute Common Terminology Criteria for Adverse Events (CTCAE; version 4.01). The frequency, duration, and severity of adverse events were recorded.
# The primary endpoint was the percentage of patients deemed to be amenable to curative treatment after conversion therapy. Amenability for curative treatment was fulfilled when one of the following criteria was met: either a sustained complete response or sustained partial response achieved for at least 2 months and if curative treatment could be performed (based on investigator's review). […] Post-hoc analyses included radiological response according to immune RECIST, correlation of clinical outcomes with BCLC stage, albumin-bilirubin score, radiological assessment criteria, biomarkers, and median time to treatment response.
substance,measurement,setting,value
avelumab,GGT increased,"Hepatic, Grade 5",0 (0%) number of patients (%)
same,Dermatitis,Grade 1-2,2 (6%) number of patients (%)
same,Hepatitis,Grade 1-2,2 (6%) number of patients (%)
same,Others immune-related,Grade 1-2,5 (15%) number of patients (%)
same,Dermatitis,Grade 3,2 (6%) number of patients (%)
same,Hepatitis,Grade 3,3 (9%) number of patients (%)
same,Others immune-related,Grade 3,0 (0%) number of patients (%)
same,Dermatitis,Grade 4,0 (0%) number of patients (%)
same,Hepatitis,Grade 4,0 (0%) number of patients (%)
same,Others immune-related,Grade 4,0 (0%) number of patients (%)
same,Dermatitis,Grade 5,0 (0%) number of patients (%)
same,Hepatitis,Grade 5,0 (0%) number of patients (%)
same,Others immune-related,Grade 5,0 (0%) number of patients (%)
same,Amylase increased,Grade 1-2,0 (0%) number of patients (%)
same,Anemia,Grade 1-2,5 (15%) number of patients (%)
same,Hypercreatinine,Grade 1-2,3 (9%) number of patients (%)
same,Hyperglycemia,Grade 1-2,1 (3%) number of patients (%)
same,Hypokalemia,Grade 1-2,6 (18%) number of patients (%)
same,Hyponatremia,Grade 1-2,4 (12%) number of patients (%)
same,Hypothyroidism,Grade 1-2,5 (15%) number of patients (%)
same,Leukopenia,Grade 1-2,6 (18%) number of patients (%)
same,Lipase increased,Grade 1-2,0 (0%) number of patients (%)
same,Neutropenia,Grade 1-2,1 (3%) number of patients (%)
same,Thrombocytopenia,Grade 1-2,4 (12%) number of patients (%)
same,Hypothyroidism,"Grade 1-2, first listing",0 (0%) number of patients (%)
same,Amylase increased,Grade 3,0 (0%) number of patients (%)
same,Anemia,Grade 3,0 (0%) number of patients (%)
same,Hypercreatinine,Grade 3,0 (0%) number of patients (%)
same,Hyperglycemia,Grade 3,0 (0%) number of patients (%)
same,Hypokalemia,Grade 3,0 (0%) number of patients (%)
same,Hyponatremia,Grade 3,0 (0%) number of patients (%)
same,Hypothyroidism,Grade 3,0 (0%) number of patients (%)
same,Leukopenia,Grade 3,0 (0%) number of patients (%)
same,Lipase increased,Grade 3,0 (0%) number of patients (%)
same,Neutropenia,Grade 3,0 (0%) number of patients (%)
same,Thrombocytopenia,Grade 3,0 (0%) number of patients (%)
same,Hypothyroidism,"Grade 3, first listing",0 (0%) number of patients (%)
same,Amylase increased,Grade 4,0 (0%) number of patients (%)
same,Anemia,Grade 4,0 (0%) number of patients (%)
same,Hypercreatinine,Grade 4,0 (0%) number of patients (%)
same,Hyperglycemia,Grade 4,0 (0%) number of patients (%)
same,Hypokalemia,Grade 4,0 (0%) number of patients (%)
same,Hyponatremia,Grade 4,0 (0%) number of patients (%)
same,Hypothyroidism,Grade 4,0 (0%) number of patients (%)
same,Leukopenia,Grade 4,0 (0%) number of patients (%)
same,Lipase increased,Grade 4,0 (0%) number of patients (%)
same,Neutropenia,Grade 4,0 (0%) number of patients (%)
same,Thrombocytopenia,Grade 4,0 (0%) number of patients (%)
same,Hypothyroidism,"Grade 4, first listing",0 (0%) number of patients (%)
same,Amylase increased,Grade 5,0 (0%) number of patients (%)
same,Anemia,Grade 5,0 (0%) number of patients (%)
same,Hypercreatinine,Grade 5,0 (0%) number of patients (%)
same,Hyperglycemia,Grade 5,0 (0%) number of patients (%)
same,Hypokalemia,Grade 5,0 (0%) number of patients (%)
same,Hyponatremia,Grade 5,0 (0%) number of patients (%)
same,Hypothyroidism,Grade 5,0 (0%) number of patients (%)
same,Leukopenia,Grade 5,0 (0%) number of patients (%)
same,Lipase increased,Grade 5,0 (0%) number of patients (%)
same,Neutropenia,Grade 5,0 (0%) number of patients (%)
same,Thrombocytopenia,Grade 5,0 (0%) number of patients (%)
same,Hypothyroidism,"Grade 5, first listing",0 (0%) number of patients (%)
same,Dry skin,Grade 1-2,6 (9%) number of patients (%)
same,Others (Skin),Grade 1-2,0 (0%) number of patients (%)
same,Pruritus,Grade 1-2,8 (24%) number of patients (%)
same,"Rash, acneiform",Grade 1-2,0 (0%) number of patients (%)
same,"Rash, maculopapular",Grade 1-2,6 (9%) number of patients (%)
same,"Rash, urticarial",Grade 1-2,2 (6%) number of patients (%)
same,Dry skin,Grade 3,0 (0%) number of patients (%)
same,Others (Skin),Grade 3,0 (0%) number of patients (%)
same,Pruritus,Grade 3,1 (3%) number of patients (%)
same,"Rash, acneiform",Grade 3,0 (0%) number of patients (%)
same,"Rash, maculopapular",Grade 3,1 (3%) number of patients (%)
same,"Rash, urticarial",Grade 3,1 (3%) number of patients (%)
same,Dry skin,Grade 4,0 (0%) number of patients (%)
same,Others (Skin),Grade 4,0 (0%) number of patients (%)
same,Pruritus,Grade 4,0 (0%) number of patients (%)
same,"Rash, acneiform",Grade 4,0 (0%) number of patients (%)
same,"Rash, maculopapular",Grade 4,0 (0%) number of patients (%)
same,"Rash, urticarial",Grade 4,0 (0%) number of patients (%)
same,Dry skin,Grade 5,0 (0%) number of patients (%)
same,Others (Skin),Grade 5,0 (0%) number of patients (%)
same,Pruritus,Grade 5,0 (0%) number of patients (%)
same,"Rash, acneiform",Grade 5,0 (0%) number of patients (%)
same,"Rash, maculopapular",Grade 5,0 (0%) number of patients (%)
same,"Rash, urticarial",Grade 5,0 (0%) number of patients (%)
same,Permanent discontinuation due to immune-related adverse events,avelumab 10 mg/kg every 2 weeks after TACE and SBRT,two
same,Median duration of dose interruption,seven patients with interruption,4 weeks
